Laboratory results taken from publication PMC3810412.

T1: delta opioid receptor (Homo sapiens), P41143
T1 chain: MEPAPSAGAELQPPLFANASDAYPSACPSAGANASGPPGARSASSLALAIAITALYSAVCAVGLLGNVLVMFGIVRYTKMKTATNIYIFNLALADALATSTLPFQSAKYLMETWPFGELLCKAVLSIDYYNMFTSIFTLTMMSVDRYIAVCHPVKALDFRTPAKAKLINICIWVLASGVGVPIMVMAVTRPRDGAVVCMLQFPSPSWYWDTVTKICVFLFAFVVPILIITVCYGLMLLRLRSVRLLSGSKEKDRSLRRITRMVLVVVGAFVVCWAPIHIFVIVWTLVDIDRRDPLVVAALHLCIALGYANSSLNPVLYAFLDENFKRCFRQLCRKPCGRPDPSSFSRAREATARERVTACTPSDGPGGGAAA


Molecular target: T1, delta opioid receptor (Homo sapiens), …
Test: radioligand competition
Settings: modification not given

Row | Ki | Binder
1 | 2.9 nM | YAGFMW [ligand 7]
2 | 0.6 nM | YAGFLW [ligand 8]
3 | 13 nM | YAGFMPLW [ligand 5]
4 | 25 nM | YAGFMALW [ligand 2]
